Experiment [1] addresses Cx. quinquefasciatus BBMV (brush border membrane vesicles of Culex quinquefasciatus larvae; toxin receptors on them not identified) (Culex quinquefasciatus). Briefly: saturation binding of 125I-toxin to BBMV, Hill fit. Details: Bmax: unit not given here.
In experiment [2] the target is Ae. aegypti BBMV (brush border membrane vesicles of Aedes aegypti larvae; toxin receptors on them not identified) (Aedes aegypti). The experiment can be described thus: saturation binding of 125I-toxin to BBMV, Hill fit.
The target in experiment [3] is Cx. quinquefasciatus BBMV (brush border membrane vesicles of Culex quinquefasciatus larvae; toxin receptors on them not identified) (Culex quinquefasciatus). The experiment can be described thus: saturation binding of 125I-toxin to BBMV, Hill fit.
Experiment [4] has as its target An. quadrimaculatus BBMV (brush border membrane vesicles of Anopheles quadrimaculatus larvae; toxin receptors on them not identified) (Anopheles quadrimaculatus). The experiment can be described thus: saturation binding of 125I-toxin to BBMV, Hill fit.
Experiment [5] concerns the target Cx. quinquefasciatus BBMV (brush border membrane vesicles of Culex quinquefasciatus larvae; toxin receptors on them not identified) (Culex quinquefasciatus). The experiment can be described thus: saturation binding of 125I-toxin to BBMV, Hill fit (repeats Table 3). Details: Bmax: unit not given here.

The values that follow come from US20050124803A1.

B1: 4BL3PAT (4BRA with D454 replaced with P and AT inserted after position 454, loop 3 of domain II) (protein)
chain: AINSSSVSTALKVAGAILKFVNPPAGTVLTVLSAVLPILWPTNTPTPERVWNDFMTNTGNLIDQTVTAYVRTDANAKMTVVKDYLDQYTTKFNTWKREPNNQSYRTAVITQFNLTSAKLRETAVYFSNLVGYELLLLPIYAQVANFNLLLIRDGLINAQEWSLAASAGDQLYNTMVQYTKEYIAHSITWYNKGLDVLRNKSNGQWITFNDYKREMTIQVLDILALFASYDPRRYPADKIDNTKLSKTEFTREIYTALVESPSSKSIAALEAALTRDVHLFTWLKRVDFWTNTIYQDLRFLSANKIGFSYTNSSAMQESGIYGSSGFGSNLTHQIQLNSNVYKTSITDTSSPSNRVTKMDFYKIDGTLASYNSNITPTPEGLRTTFFGFSTNENTPNQPTVNDYTHILSYIKTDVIPATYNSNRVSFAWTHKIVDPNNQIYTDAITQVPAVKSNFLNATAKVIKGPGHTGGDLVALTSNGTLSGRMEIQCKTSIFNDPTRSYGLRIRYAANSPIVLNVSYVLQGVSRGTTISTESTFSRPNNIIPTDLKYEEFRYKDPFDAIVPMRLSSNQLITIAIQPLNMTSNNQVIIDRIEIIPITQSVLDET
modifications: 125I-iodinated (iodo-bead, sites not stated) where used as labelled toxin
In experiment [1], B1 returned a Bmax of 9.3 and a K′D (composite dissociation constant) of 0.9 nM.

B2: 4BRA (Cry4Ba with R203 mutated to A, trypsin-activated toxin) (protein)
chain: AINSSSVSTALKVAGAILKFVNPPAGTVLTVLSAVLPILWPTNTPTPERVWNDFMTNTGNLIDQTVTAYVRTDANAKMTVVKDYLDQYTTKFNTWKREPNNQSYRTAVITQFNLTSAKLRETAVYFSNLVGYELLLLPIYAQVANFNLLLIRDGLINAQEWSLAASAGDQLYNTMVQYTKEYIAHSITWYNKGLDVLRNKSNGQWITFNDYKREMTIQVLDILALFASYDPRRYPADKIDNTKLSKTEFTREIYTALVESPSSKSIAALEAALTRDVHLFTWLKRVDFWTNTIYQDLRFLSANKIGFSYTNSSAMQESGIYGSSGFGSNLTHQIQLNSNVYKTSITDTSSPSNRVTKMDFYKIDGTLASYNSNITPTPEGLRTTFFGFSTNENTPNQPTVNDYTHILSYIKTDVIDYNSNRVSFAWTHKIVDPNNQIYTDAITQVPAVKSNFLNATAKVIKGPGHTGGDLVALTSNGTLSGRMEIQCKTSIFNDPTRSYGLRIRYAANSPIVLNVSYVLQGVSRGTTISTESTFSRPNNIIPTDLKYEEFRYKDPFDAIVPMRLSSNQLITIAIQPLNMTSNNQVIIDRIEIIPITQSVLDET
modifications: 125I-iodinated (iodo-bead, sites not stated) where used as labelled toxin
Regarding B2, the Bmax in experiment [2] turned out to be 17.2 fmol/µg; in experiment [3], 13.1 fmol/µg; in experiment [4], 35.2 fmol/µg; in experiment [5] it was 13.1. Moreover, the K′D (composite dissociation constant) in experiment [2] was determined as 0.5 nM; in experiment [3] it was 6.9 nM; in experiment [4] it was 3.1 nM; in experiment [5] it was 6.9 nM.
